Biological target: T1, C3b deposited on zymosan or Sepharose 4B (human, UniProt P01024 23-667; P01024 749-1663, limits assumed, covalently deposited on zymosan A or Sepharose 4B by opsonization in normal human serum)
T1 construct: The whole C3 entry is named; The deposit may include iC3b; also called C3b-opsonized zymosan; C3b-zymosan
Assay: flow cytometry on zymosan opsonized in 50% NHS
Procedure: After 30 minutes, the reactions were quenched with EDTA, washed and samples without the mAbs were probed with the respective A1488 mAbs.

T1 sequence (P01024 23-667 limits assumed, chain 1 of 2): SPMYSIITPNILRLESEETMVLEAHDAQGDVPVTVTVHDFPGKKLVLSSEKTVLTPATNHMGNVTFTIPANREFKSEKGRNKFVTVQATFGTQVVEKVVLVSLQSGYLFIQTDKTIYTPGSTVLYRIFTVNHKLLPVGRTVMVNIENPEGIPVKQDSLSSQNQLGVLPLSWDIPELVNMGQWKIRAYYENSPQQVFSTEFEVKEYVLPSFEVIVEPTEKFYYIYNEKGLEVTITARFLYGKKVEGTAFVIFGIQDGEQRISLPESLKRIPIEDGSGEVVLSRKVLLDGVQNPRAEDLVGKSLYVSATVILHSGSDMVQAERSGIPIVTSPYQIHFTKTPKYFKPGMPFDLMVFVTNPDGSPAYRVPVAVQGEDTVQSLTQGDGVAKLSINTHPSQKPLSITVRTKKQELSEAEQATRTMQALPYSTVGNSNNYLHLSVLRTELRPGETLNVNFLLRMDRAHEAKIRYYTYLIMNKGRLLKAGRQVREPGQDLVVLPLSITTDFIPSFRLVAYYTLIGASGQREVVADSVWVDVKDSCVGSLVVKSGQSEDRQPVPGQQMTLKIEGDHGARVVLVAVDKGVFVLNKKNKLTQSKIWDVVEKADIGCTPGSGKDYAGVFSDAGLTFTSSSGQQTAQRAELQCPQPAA
T1 sequence (P01024 749-1663 limits assumed, chain 2 of 2): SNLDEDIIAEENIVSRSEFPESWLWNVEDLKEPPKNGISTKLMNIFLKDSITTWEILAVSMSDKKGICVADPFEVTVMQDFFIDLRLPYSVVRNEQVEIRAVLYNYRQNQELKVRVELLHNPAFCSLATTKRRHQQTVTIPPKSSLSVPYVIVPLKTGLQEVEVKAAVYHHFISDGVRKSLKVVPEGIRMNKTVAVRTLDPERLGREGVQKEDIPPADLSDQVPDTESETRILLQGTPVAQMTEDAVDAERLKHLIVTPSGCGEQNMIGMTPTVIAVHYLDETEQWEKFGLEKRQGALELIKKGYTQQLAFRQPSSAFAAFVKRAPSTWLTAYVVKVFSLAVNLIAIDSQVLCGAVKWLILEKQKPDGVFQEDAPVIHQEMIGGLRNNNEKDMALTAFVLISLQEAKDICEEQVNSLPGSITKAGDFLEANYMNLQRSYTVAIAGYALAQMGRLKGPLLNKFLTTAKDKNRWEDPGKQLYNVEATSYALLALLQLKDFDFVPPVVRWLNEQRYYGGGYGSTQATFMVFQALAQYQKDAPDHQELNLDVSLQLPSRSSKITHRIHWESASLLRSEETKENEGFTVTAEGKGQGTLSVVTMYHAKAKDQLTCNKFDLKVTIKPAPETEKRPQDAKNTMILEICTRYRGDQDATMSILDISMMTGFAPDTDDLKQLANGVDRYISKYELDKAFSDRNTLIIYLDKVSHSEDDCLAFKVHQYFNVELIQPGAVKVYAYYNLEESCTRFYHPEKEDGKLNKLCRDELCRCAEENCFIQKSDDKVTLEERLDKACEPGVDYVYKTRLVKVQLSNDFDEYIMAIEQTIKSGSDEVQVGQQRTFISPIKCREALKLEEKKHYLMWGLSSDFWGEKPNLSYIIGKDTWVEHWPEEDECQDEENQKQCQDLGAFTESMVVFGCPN

B1: mAb 3E7 (antibody, mouse IgG1, V domains shown)
VH: EVQLQESGPSLVKPSQTLSLTCSVTGDSITSDYWNWIRKFPGNKLESMGYITYSGTTYYNPSLKSRISITRDTSKNQYYLQLNSVTSEDTATYYCARGVDYEPSYYFDYWGQGTTLTVSS
VL: DIQMTQTTSSLSASLGDRVTISCSASQGISNYLNWYQQKPDGTVKLLIYYTSSLHSGVPSRFSGSGSGTDYSLTISNLEPEDIATYYCQQYSNLPWTFGGGTKLEIK
notes: also called mouse IgG1 mAb 3E7; A1488 mAb 3E7
  fold increase in binding (probe added after opsonization versus present from the start): 200 fold

B2: mAb H17 (antibody, V domains shown)
VH: EVQLQESGPSLVKPSQTLSLTCTVSGDSITSDYWNWIRQAPGKGLESMGYITYSGTTYYNPSLKSRVTISRDTSKNQYYMELSSLRSEDTATYYCARGVDYEPSYYFDYWGQGTLVTVSS
VL: DIQMTQSPSSLSASVGDRVTITCSASQGISNYLNWYQQKPGKAPKLLIYYTSSLHSGVPSRFSGSGSGTDYSLTISSLQPEDIATYYCQQYSNLPWTFGQGTKVEIK
notes: It is a chimeric, de-immunized form of 3E7 with human gamma1 and kappa constant regions, expressed in NS0 cells; also called H117; deimmunized chimeric 3E7
  fold increase in binding (probe added after opsonization versus present from the start): 200 fold
